“And” between values parts separate entries of the source, which are not always exact repeats. Equal values may be shown once.
Experiments:
[1] = Thermal shift assay via nanoDSF measurement (unfolding temperature); assay type: physicochemical; settings: Prometheus NT.Plex, 3° C./min, 0.06-0.5 mg/ml
Protocol: The thermal shift assay was performed via nanoDSF (differential scanning fluorimetry) measurements using Prometheus NT.Plex nanoDSF (NanoTemper Technologies). The measurement was initialized using the software PR.ThermoControl. Prometheus can precisely characterize samples by measuring the thermal unfolding, chemical denaturation and aggregation within one single run (NanoTemper Technologies, 2019). By gradually heating the sample until reaching 95° C., the protein unfolds. Thereby, the chemical environment of tryptophan residues changes (change in intrinsic tryptophan fluorescence of protein due to more aqueous environment), causing a red-shift in fluorescence (tryptophan fluorescence emission shift). By plotting the fluorescence ratio 350/330 nm against the temperature, the melting temperature Tm can be determined. Calculating the first derivative of raw data gives a peak curve with its maximum indicating the unfolding temperature Tm.
For the sample preparation, a concentration of 0.5 mg/ml was adjusted for the hGCase mutants. For variant I5N and R495HS2, protein concentrations of 0.075 mg/ml (I5N) and 0.06 mg/ml (R495HS2) were applied due to low protein yields. 15 μl total sample volume was uptaken in each capillary of the capillary rack (Prometheus NT.Plex Capillary Chips, NanoTemper) and placed in the device. The excitation power was adjusted to 20-80%, depending on the applied protein concentration. The gradually heating was set to 3° C./min until reaching 95° C. (20° C. was set as starting temperature). The evaluation and calculation of the first derivative was done using the NanoTemper PR.ThermoControl software, the final evaluation and graphing was done using the PR.StabilityAnalysis software.
On the one hand, a successively increasing temperature gradient was applied to measure melting temperatures of protein molecules via nanoDSF (differential scanning fluorimetry) measurement using Prometheus NT.Plex (NanoTemper Technologies, 2019). The sample is gradually heated by increasing the temperature until reaching 95° C. Thereby, the protein unfolds and tryptophan residues experience a change in chemical environment (exposure to a more aqueous environment), which changes the intrinsic tryptophan fluorescence of the protein, causing a red shift in the fluorescent spectrum (350/330 nm=tryptophan fluorescence emission shift) (Schubert, 2015). In FIG. 1, typical melting curves of such an unfolding experiment are shown.
In the upper section of the graphs (FIGS. 1 (A) and (B)), the raw data (progression curves) measured with nanoDSF is plotted, indicating the shift in the fluorescence ratio 350/330 nm during the course of the measurement with increasing temperature. The calculation of the first derivative, giving peak curves (lower section of graphs in (A) and (B)), was done according to default settings of the Software PR.StabilityAnalysis (table 2). Peak maxima (thermal unfolding transition midpoint) indicate the unfolding temperature Tm, where half of the proteins are unfold (Schubert, 2015).

[2] = pH screening of hGCase variants (activity assay, pH 3.5-8); assay type: biochemical; settings: for relative activity: pH 3.5, 20 mM citric acid buffer, highest activity = 100%; for shape of pH spectrum: pH 3.5-8
Protocol: (§1) For all further GCase characterization experiments including the activity assay, 20 μM substrate concentration, 30-40 min incubation time and protein concentrations ranging from 25-100 nM were set as final assay settings to ensure measurements in the linear range. The overall DMSO concentration within the assay was kept at 0.5% (v/v) or even below, since DMSO influences the fluorescent signal with higher concentrations (experimentally tested, data not shown; confirmed by (Urban et al., 2008). Therefore, GCase activity buffer+1% (v/v) DMSO was also used for dilutions (table 2.9). The plate reader SpectraMax i3 (Molecular Devices) including the analysis software SoftMax Pro 6.4 was used for all activity measurements within this work. The program settings were kept the same for all activity runs: kinetic run, measurement temperature: 37° C., PMT Gain: high; flashes per read: 6; read height: 0.73305 mm from plate.
A pH optimum screening was done to observe a possible shift in the pH spectrum of the new variants due to structural modification of the enzymes. Therefore, three different buffers were used, covering a pH range of pH 3.5 to 8. For the screening, buffer substances were chosen after the use for purification buffers. Therefore, following buffers were prepared: Citric acid buffer (20 mM, pH 3.5-5), MES buffer (20 mM, pH 6-6.5) and HEPES buffer (20 mM, pH 7-8). The final protein concentration used for this assay was 75 nM. The activity assay was done as described in section 2.3.5 (table 2.11), merely the buffer was varied.
A possible pH optimum shift due to structural modifications should be examined. Since the GCase enzyme originally occurs within the lysosome, its natural pH optimum is reported to be between pH 4.7-6.0 (Lieberman et al., 2007; Liou et al., 2006; Tan et al., 2014). This could change when including slight modifications in the structure of the molecule. Thus, the mutants were tested within a pH range of 3.5 to 8 for enzymatic activity.

[3] = Heat inactivation at 55° C., residual GCase activity of purified protein; assay type: physicochemical; settings: for residual activities after 5 and 10 min of incubation (in words): 55° C., compared to R495HS2; for residual GCase activity after heat inactivation: 55° C. waterbath, 50 nM protein, initial activity = 100%
Protocol: as §1
Another approach to test the mutants for thermal stability is the irreversible heat inactivation at 55° C. (Futami et al., 2017; Zale & Klibanov, 1986). As initial screening to select for most promising candidates, this thermal stability approach was chosen (section 3.1.1). For this, supernatant samples of each construct were taken from the 30 ml S2 cell cultures, respectively (section 2.2). The protein concentration was not adjusted. The samples were incubated for 40 min in total at 55° C. (PCR Cycler Mastercycler gradient, Eppendorf) using PCR plates (FrameStar®96 well skirted PCR plate, 4titude Ltd.). Samples were taken after 5, 7, 10, 15, 20, 30 and 40 min for residual activity measurements. The activity assay was performed as described in section 2.3.5. The initial activity of each mutant was set to 100% before heating. Residual activities were calculated in regard to the initial activity. Data points were fitted using the one phase decay fit by GraphPad Prism7 following equation 3: […]
For the heat inactivation experiment of purified protein (see section 3.3.3), hGCase protein samples were prepared with a final concentration of 50 nM, diluted in hGCase activity buffer, pH 6.0 (table 2.9) and incubated for 5 and 10 minutes in the waterbath (Julabo 5A, Julabo) at 55° C.
The second approach was aimed to test residual GCase activity after thermal inactivation at a fixed temperature. With this additional approach, the focus was set on activity-based changes with increased incubation time (Futami et al., 2017; Zale & Klibanov, 1986). Here, samples were incubated for 5 and 10 minutes in the waterbath at 55° C. Residual GCase activities were measured with the initial activity set to 100% (before heating). FIG. 2 depicts calculated residual activities for tested mutants after incubation.

B1: R495HS2: hGCase based on the Cerezyme sequence (R495H) but produced in S2 cells, His8-tagged; Seq. Id. No. 1 (protein, listed as Homo sapiens)
chain: ARPCIPKSFGYSSVVCVCNATYCDSFDPPTFPALGTFSRYESTRSGRRMELSMGPIQANHTGTGLLLTLQPEQKFQKVKGFGGAMTDAAALNILALSPPAQNLLLKSYFSEEGIGYNIIRVPMASCDFSIRTYTYADTPDDFQLHNFSLPEEDTKLKIPLIHRALQLAQRPVSLLASPWTSPTWLKTNGAVNGKGSLKGQPGDIYHQTWARYFVKFLDAYAEHKLQFWAVTAENEPSAGLLSGYPFQCLGFTPEHQRDFIARDLGPTLANSTHHNVRLLMLDDQRLLLPHWAKVVLTDPEAAKYVHGIAVHWYLDFLAPAKATLGETHRLFPNTMLFASEACVGSKFWEQSVRLGSWDRGMQYSHSIITNLLYHVVGWTDWNLALNPEGGPNWVRNFVDSPIIVDITKDTFYKQPMFYHLGHFSKFIPEGSQRVGLVASQKNDLDAVALMHPDGSAVVVVLNRSSKDVPLTIKDPAVGFLETISPGYSIHTYLWHRQ
modifications: His8 tag
- unfolding temperature Tm [1]: 54.6 °C and 54.6 ± 0.0 °C
- relative activity [2]: 80%

B2: K321N: Amicus single mutant hGCase R495H/K321N produced in S2 cells; Seq. Id. No. 2 (protein, listed as Homo sapiens)
chain: ARPCIPKSFGYSSVVCVCNATYCDSFDPPTFPALGTFSRYESTRSGRRMELSMGPIQANHTGTGLLLTLQPEQKFQKVKGFGGAMTDAAALNILALSPPAQNLLLKSYFSEEGIGYNIIRVPMASCDFSIRTYTYADTPDDFQLHNFSLPEEDTKLKIPLIHRALQLAQRPVSLLASPWTSPTWLKTNGAVNGKGSLKGQPGDIYHQTWARYFVKFLDAYAEHKLQFWAVTAENEPSAGLLSGYPFQCLGFTPEHQRDFIARDLGPTLANSTHHNVRLLMLDDQRLLLPHWAKVVLTDPEAAKYVHGIAVHWYLDFLAPANATLGETHRLFPNTMLFASEACVGSKFWEQSVRLGSWDRGMQYSHSIITNLLYHVVGWTDWNLALNPEGGPNWVRNFVDSPIIVDITKDTFYKQPMFYHLGHFSKFIPEGSQRVGLVASQKNDLDAVALMHPDGSAVVVVLNRSSKDVPLTIKDPAVGFLETISPGYSIHTYLWHRQ
notes: Amicus single mutant hGCase R495H/K321N produced in S2 cells; Id; No. 2
- unfolding temperature Tm [1]: 56.2 ± 0.1 °C
- residual activities after 5 and 10 min of incubation (in words) [3]: significantly higher residual activities

B3: F31Y: recombinant human β-glucocerebrosidase variant R495H/F31Y, S2 cells; Seq. Id. No. 5 (protein, listed as Homo sapiens)
chain: ARPCIPKSFGYSSVVCVCNATYCDSFDPPTYPALGTFSRYESTRSGRRMELSMGPIQANHTGTGLLLTLQPEQKFQKVKGFGGAMTDAAALNILALSPPAQNLLLKSYFSEEGIGYNIIRVPMASCDFSIRTYTYADTPDDFQLHNFSLPEEDTKLKIPLIHRALQLAQRPVSLLASPWTSPTWLKTNGAVNGKGSLKGQPGDIYHQTWARYFVKFLDAYAEHKLQFWAVTAENEPSAGLLSGYPFQCLGFTPEHQRDFIARDLGPTLANSTHHNVRLLMLDDQRLLLPHWAKVVLTDPEAAKYVHGIAVHWYLDFLAPAKATLGETHRLFPNTMLFASEACVGSKFWEQSVRLGSWDRGMQYSHSIITNLLYHVVGWTDWNLALNPEGGPNWVRNFVDSPIIVDITKDTFYKQPMFYHLGHFSKFIPEGSQRVGLVASQKNDLDAVALMHPDGSAVVVVLNRSSKDVPLTIKDPAVGFLETISPGYSIHTYLWHRQ
notes: recombinant human β-glucocerebrosidase variant R495H/F31Y, S2 cells; Id; No. 5
- unfolding temperature Tm [1]: 55.1 ± 0.1 °C
- residual GCase activity after heat inactivation ([3]; 10 min incubation): ~27%
- relative activity [2]: ~80%
- pH optimum ([2]; pH range 3.5-8, 75 nM protein, 100% relative activity): 6 pH

B4: K321N/H145L: Amicus double mutant hGCase R495H/K321N/H145L produced in S2 cells; Seq. Id. No. 3 (protein, listed as Homo sapiens)
chain: ARPCIPKSFGYSSVVCVCNATYCDSFDPPTFPALGTFSRYESTRSGRRMELSMGPIQANHTGTGLLLTLQPEQKFQKVKGFGGAMTDAAALNILALSPPAQNLLLKSYFSEEGIGYNIIRVPMASCDFSIRTYTYADTPDDFQLLNFSLPEEDTKLKIPLIHRALQLAQRPVSLLASPWTSPTWLKTNGAVNGKGSLKGQPGDIYHQTWARYFVKFLDAYAEHKLQFWAVTAENEPSAGLLSGYPFQCLGFTPEHQRDFIARDLGPTLANSTHHNVRLLMLDDQRLLLPHWAKVVLTDPEAAKYVHGIAVHWYLDFLAPANATLGETHRLFPNTMLFASEACVGSKFWEQSVRLGSWDRGMQYSHSIITNLLYHVVGWTDWNLALNPEGGPNWVRNFVDSPIIVDITKDTFYKQPMFYHLGHFSKFIPEGSQRVGLVASQKNDLDAVALMHPDGSAVVVVLNRSSKDVPLTIKDPAVGFLETISPGYSIHTYLWHRQ
notes: Amicus double mutant hGCase R495H/K321N/H145L produced in S2 cells; Id; No. 3
- unfolding temperature Tm [1]: 57.3 ± 0.0 °C
- residual activities after 5 and 10 min of incubation (in words) [3]: significantly higher residual activities
- shape of pH spectrum [2]: more bell-shaped pH spectrum

B5: M53T/P55T: recombinant human β-glucocerebrosidase variant R495H/M53T/P55T, S2 cells; Seq. Id. No. 7 (protein, listed as Homo sapiens)
chain: ARPCIPKSFGYSSVVCVCNATYCDSFDPPTFPALGTFSRYESTRSGRRMELSTGTIQANHTGTGLLLTLQPEQKFQKVKGFGGAMTDAAALNILALSPPAQNLLLKSYFSEEGIGYNIIRVPMASCDFSIRTYTYADTPDDFQLHNFSLPEEDTKLKIPLIHRALQLAQRPVSLLASPWTSPTWLKTNGAVNGKGSLKGQPGDIYHQTWARYFVKFLDAYAEHKLQFWAVTAENEPSAGLLSGYPFQCLGFTPEHQRDFIARDLGPTLANSTHHNVRLLMLDDQRLLLPHWAKVVLTDPEAAKYVHGIAVHWYLDFLAPAKATLGETHRLFPNTMLFASEACVGSKFWEQSVRLGSWDRGMQYSHSIITNLLYHVVGWTDWNLALNPEGGPNWVRNFVDSPIIVDITKDTFYKQPMFYHLGHFSKFIPEGSQRVGLVASQKNDLDAVALMHPDGSAVVVVLNRSSKDVPLTIKDPAVGFLETISPGYSIHTYLWHRQ
notes: recombinant human β-glucocerebrosidase variant R495H/M53T/P55T, S2 cells; Id; No. 7
- unfolding temperature Tm [1]: 55.3 ± 0.1 °C
- residual GCase activity after heat inactivation ([3]; 5 min incubation): 65%
- residual GCase activity after heat inactivation ([3]; 10 min incubation): 27%
- relative activity [2]: 80%
- shape of pH spectrum [2]: more bell-shaped pH spectrum
